In assay [1] the test system is P. aeruginosa 6077 (exoU+). The experiment in a line: Rabbit red blood cell lysis inhibition assay with strain 6077. The class given is cell-based, Pseudomonas aeruginosa. Conditions: strain 6077; FIG. 12D-E. As to the method:
Percent inhibition of cytotoxicity analysis was analysed for the parental V2L2 mAb, mAb166 (positive control) and R347 (negative control), where the antibodies were administered to cultured broncho-epithelial cell line A549 combined with log-phase P. aeruginosa strain 6077 (exoU+) at a MOI of approximately 10. A549 lysis was assayed by measuring released lactate dehydrogenase (LDH) activity and lysis in the presence of mAbs was compared to wells without mAb to determine percent inhibition. The V2L2 mAb, mAb166 (positive control) and R347 (negative control) were evaluated for their ability to prevent lysis of RBCs, where the antibodies were mixed with log-phase P. aeruginosa 6077 (exoU^+) and washed rabbit red blood cells (RBCs) and incubated for 2 hours at 37°. Intact RBCs were pelleted and the extent of lysis determined by measuring the OD405 of the cell-free supernatant. Lysis in the presence of anti-PcrV mAbs was compared to wells without mAb to determine percent inhibition.

A further assay has as its system P. aeruginosa 6294 (O6). The experiment in a line: Acute pneumonia model in mice, strain 6294. Format: in vivo, Pseudomonas aeruginosa. As to the method: (§1) Antibodies or PBS were administered 24 hours before infection in each model. P. aeruginosa acute pneumonia, keratitis, and thermal injury infection models were performed as described (DiGiandomenico, A., et al., Proc Natl Acad Sci USA 104, 4624-4629 (2007)), with modifications. In the acute pneumonia model, BALB/c mice (The Jackson Laboratory) were infected with P. aeruginosa strains suspended in a 0.05 ml inoculum. In the thermal injury model, CF-1 mice (Charles River) received a 10% total body surface area burn with a metal brand heated to 92° C. for 10 seconds. Animals were infected subcutaneously with P. aeruginosa strain 6077 at the indicated dose. For organ burden experiments, acute pneumonia was induced in mice followed by harvesting of lungs, spleens, and kidneys 24 hours post-infection for determination of CFU.

Assay [2] has as its system P. aeruginosa 6077 (O11-cytotoxic). The experiment in a line: Corneal infection (keratitis) model in mice, strain 6077. Format: in vivo, Pseudomonas aeruginosa. Conditions: C3H/HeN mice, IP dosing 16 hours prior to 6077 (1×10^6 CFU), FIG. 8H. The method, then: as §1
Cam-003 and WapR-004 efficacy was next evaluated in a P. aeruginosa corneal infection model which emphasizes the pathogens ability to attach and colonize damaged tissue. […] FIG. 8 (H): The activity of anti-Psl and anti-PcrV monoclonal antibodies V2L2 was tested in a P. aeruginosa mouse ocular keratitis model. C3H/HeN mice were injected intraperitoneally (IP) with PBS or a control IgG1 antibody (R347) at 45 mg/kg or WapR-004 (α-Psl) at 5 mg/kg or V2L2 (α-PcrV) at 5 mg/kg, 16 hours prior to infection with 6077 (O11-cytotoxic−1×10^6 CFU) Immediately before infection, mice were anesthetized followed by initiation of three 1 mm scratches on the cornea and superficial stroma of one eye of each mouse using a 27-gauge needle under a dissection microscope, followed by topical application of P. aeruginosa 6077 strain in a 5 μl inoculum. Eyes were photographed at 48 hours post infection followed by corneal grading by visualization of eyes under a dissection microscope. Grading of corneal infection was performed as previously described by Preston et al. (Preston, M J., 1995, Infect. Immun. 63:3497). Briefly, infected eyes were graded 48 h after infection with strain 6077 by an investigator who was unaware of the animal treatments. The following grading scheme was used: grade 0, eye macroscopically identical to an uninfected eye; grade 1, faint opacity partially covering the pupil; grade 2, dense opacity covering the pupil; grade 3, dense opacity covering the entire pupil; grade 4, perforation of the cornea (shrinkage of the eyeball).

The subject of assay [3] is P. aeruginosa 6206 (O11-ExoU+). The experiment in a line: Acute pneumonia model in mice, strain 6206. The class given is in vivo, Pseudomonas aeruginosa. Conditions: 6206; W4-RAD 0.2 mg/kg; monitored 120 hours; FIG. 21A. The method, then:
as §1

Assay [4] has as its system P. aeruginosa serogroup 05 strain (PAO1.lux). The experiment in a line: Opsonophagocytic killing (OPK) assay with luminescent PAO1.lux, HL-60 cells and baby rabbit serum. The class given is cell-based, Pseudomonas aeruginosa. Conditions: FIG. 10C, 11N-Q. As to the method: This example describes the evaluation of prioritized human IgG1 antibodies to promote OPK of P. aeruginosa. […] OPK assays were performed as described in (DiGiandomenico, A., et al., Infect Immun 72, 7012-7021 (2004)), with modifications. Briefly, assays were performed in 96-well plates using 0.025 ml of each OPK component; P. aeruginosa strains; diluted baby rabbit serum; differentiated HL-60 cells; and monoclonal antibody. In some OPK assays, luminescent P. aeruginosa strains, which were constructed as described (Choi, K. H., et al., Nat Methods 2, 443-448 (2005))., were used. Luminescent OPK assays were performed as described above but with determination of relative luciferase units (RLUs) using a Perkin Elmer ENVISION Multilabel plate reader (Perkin Elmer).

Numbering of substitutions follows the chain as printed. Names may count otherwise.

B1: V2L2-GL: V2L2-germlined mAb (antibody, V domains shown)
VH: EVQLLESGGGLVQPGGSLRLSCAASGFTFSSYAMNWVRQAPGKGLEWVSAITISGITAYYTDSVKGRFTISRDNSKNTLYLQMNSLRAEDTAVYYCAKEEFLPGTHYYYGMDVWGQGTTVTVSS
VL: AIQMTQSPSSLSASVGDRVTITCRASQGIRNDLGWYQQKPGKAPKLVIYSASTLQSGVPSRFSGSGSGTDFTLSISSLQPDDFATYYCLQDYNYPWTFGQGTKVEIK
modifications: V2L2-GL VH; V2L2-MD and V2L2-GL VL
notes: V2L2-germlined mAb
For B1, the “prevention of RBC lysis” value in assay [1] is “demonstrated prevention of RBC lysis”.

B2: WapR-004RAD: identical to WapR-004 except for substitution G98A of the VH; VH SEQ ID NO: 74, VL SEQ ID NO: 12 (antibody, V domains shown)
VH: EVQLLESGPGLVKPSETLSLTCNVAGGSISPYYWTWIRQPPGKGLELIGYIHSSGYTDYNPSLKSRVTISGDTSKKQFSLHVSSVTAADTAVYFCARADWDLLHALDIWGQGTLVTVSS
VL: EIVLTQSPSSLSTSVGDRVTITCRASQSIRSHLNWYQQKPGKAPKLLIYGASNLQSGVPSRFSGSGSGTDFTLTISSLQPEDFATYYCQQSYSFPLTFGGGTKLEIK
modifications: WapR-004RAD VH; WapR-004 & WarR-004RAD VL
B2: in the assay on P. aeruginosa 6294 (O6) (2.5×10^7 CFU 6294, Bs2-/Bs3-V2L2 0.7 mg/kg, V2L2 or W4-RAD 0.5 mg/kg, FIG. 23A), the “organ burden in lung, spleen and kidney” value is “no effect on decreasing organ burden”. Besides, the “survival effect, in words” value in the assay with P. aeruginosa 6294 (O6) (6294, bispecifics 0.28 mg/kg, V2L2 or W4-RAD 0.2 mg/kg, FIG. 24) is “did not affect survival”. The “bacterial CFU in total eye homogenates compared to R347 control” value in assay [2] was “reduced bacterial colony forming units (CFU) in total eye homogenates”. Moreover, in assay [2] (graded 48 h after infection), the “corneal pathology compared to R347 control” value is on record as “significantly less pathology”. The animals survived result in assay [3] is recorded as “Approximately 90%”.

B3: Psl0337: lead optimized anti-Psl clone; VH SEQ ID NO:295, VL SEQ ID NO:296 (antibody, V domains shown)
VH: B2 VH with E1Q, L5Q, N23T, A25S, H81K, V82L, F94Y, L102H, L103K, L114M
VL: B2 VL with E1D, V3Q, T13A, Q90D, Y92S, F94W, L104V
modifications: Psl0337-Germline VH; Psl0337-Germline VL
Regarding B3, in assay [4], the “OPK activity of lead optimized anti-Psl clones (basis of selection)” value (shortened to “OPK activity … (basis of selection)”) was “enhanced OPK activity”.

B4: Psl0225: lead optimized anti-Psl clone; VH SEQ ID NO:290, VL SEQ ID NO:291 (antibody, V domains shown)
VH: QVQLQESGPGLVKPSETLSLTCTVSGGSISPYYWTWIRQPPGKGLELIGYIHSSGYTDYNPSLKSRVTISGDTSKKQFSLKLSSVTAADTAVYYCARAMDIEPHALDIWGQGTMVTVSS
VL: B2 VL with E1D, V3Q, T13A, Y92D, S93D, F94G, P95F, L96P, T97N, L104V
modifications: Psl0225-Germline VH; Psl0225-Germline VL
For B4, the “OPK activity … (basis of selection)” value in assay [4] is reported as “enhanced OPK activity”.

B5: Psl0588: lead optimized anti-Psl clone; VH SEQ ID NO:292, VL SEQ ID NO:293 (antibody, V domains shown)
VH: B4 VH with M99D, I101P, E102F, H104G, A105Y
VL: B2 VL with E1D, V3Q, T13A, Y92D, S93T, T97K, L104V
modifications: Psl0588-Germline VH
As for B5, in assay [4], the “OPK activity … (basis of selection)” value was “enhanced OPK activity”.

These data come from US20150284450A1, “COMBINATION THERAPIES USING ANTI-PSEUDOMONAS PSL AND PCRV BINDING MOLECULES” (priority 2012, published 2015).
